This note sets out measurements from paper PMC9750158 (Science Advances, 2022).

The target in one test is T1, WAVE1(1-230) (human, UniProt Q92558 1-230).
T1 sequence: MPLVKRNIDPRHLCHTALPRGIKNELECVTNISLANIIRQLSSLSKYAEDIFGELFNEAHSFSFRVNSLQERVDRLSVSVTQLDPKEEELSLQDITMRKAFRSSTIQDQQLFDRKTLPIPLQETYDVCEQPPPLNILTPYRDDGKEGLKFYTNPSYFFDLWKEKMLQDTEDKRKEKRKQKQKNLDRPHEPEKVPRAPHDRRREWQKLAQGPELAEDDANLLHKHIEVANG
Nature of the test: reconstitution and co-purification of subcomplexes and pentamer.

The next test deals with Sra1 (human, UniProt Q7L576 1-1253). The test is described as above.
Sra1, sequence (Q7L576 whole entry): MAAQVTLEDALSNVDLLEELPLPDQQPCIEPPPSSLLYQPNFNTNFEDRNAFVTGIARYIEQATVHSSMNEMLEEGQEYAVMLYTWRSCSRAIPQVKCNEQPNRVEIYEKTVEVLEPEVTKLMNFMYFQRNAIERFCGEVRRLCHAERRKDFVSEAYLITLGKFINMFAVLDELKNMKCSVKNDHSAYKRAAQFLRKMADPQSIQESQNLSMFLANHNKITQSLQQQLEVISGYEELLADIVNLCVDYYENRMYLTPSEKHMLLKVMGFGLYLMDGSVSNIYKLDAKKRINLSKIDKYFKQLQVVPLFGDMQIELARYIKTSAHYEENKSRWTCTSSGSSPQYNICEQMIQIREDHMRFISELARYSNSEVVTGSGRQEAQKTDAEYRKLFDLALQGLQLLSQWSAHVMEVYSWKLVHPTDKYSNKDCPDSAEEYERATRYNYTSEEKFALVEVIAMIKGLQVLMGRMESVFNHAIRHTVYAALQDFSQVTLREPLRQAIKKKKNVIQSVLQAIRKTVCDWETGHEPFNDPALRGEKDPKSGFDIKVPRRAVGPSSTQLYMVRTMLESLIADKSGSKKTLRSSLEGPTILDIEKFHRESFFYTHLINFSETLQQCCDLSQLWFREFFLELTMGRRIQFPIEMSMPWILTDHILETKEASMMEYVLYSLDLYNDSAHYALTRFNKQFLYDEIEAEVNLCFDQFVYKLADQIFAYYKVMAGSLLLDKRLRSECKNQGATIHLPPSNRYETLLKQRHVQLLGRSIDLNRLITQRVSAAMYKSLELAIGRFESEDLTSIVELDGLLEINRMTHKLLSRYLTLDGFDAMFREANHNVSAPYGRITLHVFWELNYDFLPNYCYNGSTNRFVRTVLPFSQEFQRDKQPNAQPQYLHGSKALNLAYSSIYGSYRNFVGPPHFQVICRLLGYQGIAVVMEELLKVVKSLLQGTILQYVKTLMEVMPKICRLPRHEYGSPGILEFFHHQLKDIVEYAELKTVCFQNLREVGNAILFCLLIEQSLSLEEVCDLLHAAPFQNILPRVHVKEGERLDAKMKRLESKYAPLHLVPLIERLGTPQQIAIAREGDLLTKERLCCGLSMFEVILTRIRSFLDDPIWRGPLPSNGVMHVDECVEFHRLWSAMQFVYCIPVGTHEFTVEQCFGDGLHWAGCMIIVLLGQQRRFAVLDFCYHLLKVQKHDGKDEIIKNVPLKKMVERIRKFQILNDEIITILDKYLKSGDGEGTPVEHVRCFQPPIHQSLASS
For the next test, the target named is Sra1/Nap1 dimer (human, UniProt Q7L576;Q9Y2A7). The test is described as above.
Sra1/Nap1 dimer, sequence (Q7L576 whole entry, one chain of several): as the sequence (Q7L576 whole entry) above
In test [1] the target is ∆WRC230 with Sra1 W845A/Y849A (∆M#3) (human, UniProt Q7L576;Q9Y2A7;Q92558;Q9NYB9;Q8WUW1, W845A | Y849A). The test is described as follows: pull-down.
∆WRC230 with Sra1 W845A/Y849A (∆M#3), sequence (Q7L576 whole entry W845A/Y849A, one chain of several): as the sequence (Q7L576 whole entry) above, with W845A, Y849A counted along it

B1: HSPC300 (natural protein)
chain: MAGQEDPVQREIHQDWANREYIEIITSSIKKIADFLNSFDMSCRSRLATLNEKLTALERRIEYIEARVTKGETLT
In the case of B1, in the test with WAVE1(1-230), the binding result is given as “binds”.

B2: Nap1 (natural protein)
chain: MSRSVLQPSQQKLAEKLTILNDRGVGMLTRLYNIKKACGDPKAKPSYLIDKNLESAVKFIVRKFPAVETRNNNQQLAQLQKEKSEILKNLALYYFTFVDVMEFKDHVCELLNTIDVCQVFFDITVNFDLTKNYLDLIITYTTLMILLSRIEERKAIIGLYNYAHEMTHGASDREYPRLGQMIVDYENPLKKMMEEFVPHSKSLSDALISLQMVYPRRNLSADQWRNAQLLSLISAPSTMLNPAQSDTMPCEYLSLDAMEKWIIFGFILCHGILNTDATALNLWKLALQSSSCLSLFRDEVFHIHKAAEDLFVNIRGYNKRINDIRECKEAAVSHAGSMHRERRKFLRSALKELATVLSDQPGLLGPKALFVFMALSFARDEIIWLLRHADNMPKKSADDFIDKHIAELIFYMEELRAHVRKYGPVMQRYYVQYLSGFDAVVLNELVQNLSVCPEDESIIMSSFVNTMTSLSVKQVEDGEVFDFRGMRLDWFRLQAYTSVSKASLGLADHRELGKMMNTIIFHTKMVDSLVEMLVETSDLSIFCFYSRAFEKMFQQCLELPSQSRYSIAFPLLCTHFMSCTHELCPEERHHIGDRSLSLCNMFLDEMAKQARNLITDICTEQCTLSDQLLPKHCAKTISQAVNKKSKKQTGKKGEPEREKPGVESMRKNRLVVTNLDKLHTALSELCFSINYVPNMVVWEHTFTPREYLTSHLEIRFTKSIVGMTMYNQATQEIAKPSELLTSVRAYMTVLQSIENYVQIDITRVFNNVLLQQTQHLDSHGEPTITSLYTNWYLETLLRQVSNGHIAYFPAMKAFVNLPTENELTFNAEEYSDISEMRSLSELLGPYGMKFLSESLMWHISSQVAELKKLVVENVDVLTQMRTSFDKPDQMAALFKRLSSVDSVLKRMTIIGVILSFRSLAQEALRDVLSYHIPFLVSSIEDFKDHIPRETDMKVAMNVYELSSAAGLPCEIDPALVVALSSQKSENISPEEEYKIACLLMVFVAVSLPTLASNVMSQYSPAIEGHCNNIHCLAKAINQIAAALFTIHKGSIEDRLKEFLALASSSLLKIGQETDKTTTRNRESVYLLLDMIVQESPFLTMDLLESCFPYVLLRNAYHAVYKQSVTSSA
For the molecule B2, the binding result in the test with Sra1 is given as “binds”.

B3: Abi2(1-158) (domain or fragment)
chain: MAELQMLLEEEIPGGRRALFDSYTNLERVADYCENNYIQSADKQRALEETKAYTTQSLASVAYLINTLANNVLQMLDIQASQLRRMESSINHISQTVDIHKEKVARREIGILTTNKNTSRTHKIIAPANLERPVRYIRKPIDYTILDDIGHGVKWLLR
Regarding B3, the binding result with WAVE1(1-230) was “binds”.

B4: WAVE1(1-230)/Abi2(1-158)/HSPC300 trimer (complex)
chain 1: T1 sequence
chain 2: B3 chain
chain 3: B1 chain
As to B4, the binding result with Sra1/Nap1 dimer was “binds”.

B5: GST-Arf1 (Arf1^∆N17) (natural protein)
chain: not shown
B5: in test [1], the binding result is “binds”.
